These results are taken from PMC12749989, “Conformational plasticity across phylogenetic clusters of RND multidrug efflux pumps and its impact on substrate specificity” (Nature Communications, 2025).

Where a chain is given by its changes, count along the chain named.

For data set [1], the target named is K. pneumoniae OqxB (Klebsiella pneumoniae). Description: crystal structure; detergent-solubilised (DDM) OqxB; sitting drop, 25 °C, 12% PEG4000, 0.2 M MgCl2, 100 mM ADA pH 6.5.
For data set [2] the target is unchanged. Description: cryo-EM structure; single-particle cryo-EM of AcrB or OqxB reconstituted in detergent-free salipro nanodiscs (saposinA, E. coli total lipids), 20 mM Tris pH 7.5, 150 mM NaCl.
Data set [3] deals with the molecule itself. Description: cryo-EM structure; single-particle cryo-EM of DDM-solubilised AcrB; trimer composition from the classified monomers.
Data set [4] deals with the molecule itself. The data set is described as follows: cryo-EM structure; single-particle cryo-EM of AcrB or OqxB reconstituted in detergent-free salipro nanodiscs (saposinA, E. coli total lipids), 20 mM Tris pH 7.5, 150 mM NaCl.
Data set [5] concerns the molecule itself. The data set is described as follows: crystal structure; DDM-solubilised AcrB variants mixed with DARPins 1:2, excess DARPin removed by SEC (20 mM Tris pH 7.5, 150 mM NaCl, 0.03 % DDM); hanging drop, 18 °C; with 2 mM minocycline or apo.

What is called stoichiometry N is the number of molecules, sites or subunits per partner or assembly. Turning to K. pneumoniae OqxB (natural protein), the stoichiometry N in data set [1] and in data set [2] was 3 throughout.

B1: E. coli AcrB V612W (natural protein)
chain: MPNFFIDRPIFAWVIAIIIMLAGGLAILKLPVAQYPTIAPPAVTISASYPGADAKTVQDTVTQVIEQNMNGIDNLMYMSSNSDSTGTVQITLTFESGTDADIAQVQVQNKLQLAMPLLPQEVQQQGVSVEKSSSSFLMVVGVINTDGTMTQEDISDYVAANMKDAISRTSGVGDVQLFGSQYAMRIWMNPNELNKFQLTPVDVITAIKAQNAQVAAGQLGGTPPVKGQQLNASIIAQTRLTSTEEFGKILLKVNQDGSRVLLRDVAKIELGGENYDIIAEFNGQPASGLGIKLATGANALDTAAAIRAELAKMEPFFPSGLKIVYPYDTTPFVKISIHEVVKTLVEAIILVFLVMYLFLQNFRATLIPTIAVPVVLLGTFAVLAAFGFSINTLTMFGMVLAIGLLVDDAIVVVENVERVMAEEGLPPKEATRKSMGQIQGALVGIAMVLSAVFVPMAFFGGSTGAIYRQFSITIVSAMALSVLVALILTPALCATMLKPIAKGDHGEGKKGFFGWFNRMFEKSTHHYTDSVGGILRSTGRYLVLYLIIVVGMAYLFVRLPSSFLPDEDQGVFMTMVQLPAGATQERTQKVLNEVTHYYLTKEKNNVESVFAWNGFGFAGRGQNTGIAFVSLKDWADRPGEENKVEAITMRATRAFSQIKDAMVFAFNLPAIVELGTATGFDFELIDQAGLGHEKLTQARNQLLAEAAKHPDMLTSVRPNGLEDTPQFKIDIDQEKAQALGVSINDINTTLGAAWGGSYVNDFIDRGRVKKVYVMSEAKYRMLPDDIGDWYVRAADGQMVPFSAFSSSRWEYGSPRLERYNGLPSMEILGQAAPGKSTGEAMELMEQLASKLPTGVGYDWTGMSYQERLSGNQAPSLYAISLIVVFLCLAALYESWSIPFSVMLVVPLGVIGALLAATFRGLTNDVYFQVGLLTTIGLSAKNAILIVEFAKDLMDKEGKGLIEATLDAVRMRLRPILMTSLAFILGVMPLVISTGAGSGAQNAVGTGVMGGMVTATVLAIFFVPVFFVVVRRRFSRKNEDIEHSHTVDHH
notes: Homotrimer; source: E. coli C43 (DE3) ∆acrB, purified (Ni-NTA, SEC), DDM-solubilised
On to B1, for which the “stoichiometry N” value in data set [3] was determined as 3.

B2: E. coli AcrB V612F (natural protein)
chain: B1 chain with W612F
notes: Homotrimer; source: E. coli C43 (DE3) ∆acrB, purified (Ni-NTA, SEC); DDM-solubilised, in cyclohexyl-n-hexyl-β-D-maltoside (apo crystals) or reconstituted in salipro nanodiscs
Regarding B2, in data set [4], the “stoichiometry N” value stood at 3.

B3: E. coli AcrB V612N (natural protein)
chain: B1 chain with W612N
notes: as for B1
Take B3: the “stoichiometry N” value in data set [5] was determined as 3.
